Holding throughout (assay): flow cytometry on cells
Background: A flow cytometer gives signals particle by particle.

Test [1] addresses T1, C-terminally truncated wild-type Ste2p (Saccharomyces cerevisiae, UniProt D6VTK4 1-303).
T1 sequence (looked up): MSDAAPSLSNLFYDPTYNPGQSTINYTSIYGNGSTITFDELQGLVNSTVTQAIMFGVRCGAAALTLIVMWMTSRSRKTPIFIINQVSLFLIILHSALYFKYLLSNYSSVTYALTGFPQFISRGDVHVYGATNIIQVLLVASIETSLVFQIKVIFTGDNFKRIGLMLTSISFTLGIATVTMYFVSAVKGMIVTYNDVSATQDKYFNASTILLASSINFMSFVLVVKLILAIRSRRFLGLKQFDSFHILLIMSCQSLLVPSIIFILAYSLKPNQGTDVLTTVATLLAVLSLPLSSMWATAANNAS

Test [2] has as its target T2, C-terminally truncated Ste2p F38Y (Saccharomyces cerevisiae, UniProt D6VTK4 1-303, F38Y).
T2 sequence (looked up): T1 sequence (looked up) with F38Y

In test [3] the target is T3, C-terminally truncated Ste2p V49D (Saccharomyces cerevisiae, UniProt D6VTK4 1-303, V49D).
T3 sequence (looked up): T1 sequence (looked up) with V49D

The target of test [4] is T4, C-terminally truncated Ste2p H94Y (Saccharomyces cerevisiae, UniProt D6VTK4 1-303, H94Y).
T4 sequence (looked up): T1 sequence (looked up) with H94Y

The target of test [5] is T5, full-length wild-type Ste2p (Saccharomyces cerevisiae, UniProt D6VTK4 1-431).
T5 sequence (looked up): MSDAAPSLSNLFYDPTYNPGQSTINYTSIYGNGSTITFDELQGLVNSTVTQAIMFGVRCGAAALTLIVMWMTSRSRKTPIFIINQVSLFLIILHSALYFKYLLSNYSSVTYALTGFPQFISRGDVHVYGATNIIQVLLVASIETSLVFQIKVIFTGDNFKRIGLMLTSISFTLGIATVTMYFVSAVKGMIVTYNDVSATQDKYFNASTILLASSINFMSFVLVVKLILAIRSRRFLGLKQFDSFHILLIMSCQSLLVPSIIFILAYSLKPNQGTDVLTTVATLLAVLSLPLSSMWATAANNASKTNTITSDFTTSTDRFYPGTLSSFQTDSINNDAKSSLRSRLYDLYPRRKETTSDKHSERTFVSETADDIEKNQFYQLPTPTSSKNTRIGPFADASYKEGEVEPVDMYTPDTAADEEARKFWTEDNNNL

Test [6] concerns the target T6, full-length Ste2p V49D (Saccharomyces cerevisiae, UniProt D6VTK4 1-431, V49D).
T6 sequence (looked up): T5 sequence (looked up) with V49D

Changes are numbered by the printed parent chain.

B1: [K^7(NBD),Nle^12] α-factor (peptide)
chain: WHWLQLKPGQPMY
modifications: NBD (7-nitrobenz-2-oxa-1,3-diazol-4-yl) conjugated to the lysine at position 7; norleucine at position 12 in place of methionine
A word on the Kd: it is the free concentration of one partner at which half of the binding sites on the other are occupied at equilibrium, for simple one-to-one binding. As for B1, the equilibrium dissociation constant (Kd) in test [1] turned out to be 45 ± 1.7 nM; in test [2], 64 ± 7.9 nM; in test [3], 35 ± 4 nM; in test [4], 90 ± 12 nM; in test [5] it was 28 ± 4.7 nM; in test [6], 49 ± 20 nM.

The record behind these values is article PMC4405178 (Biochemistry, 2015).
